± gives the uncertainty stated by the source.

The source of these data is the Human Domainome abundance scans (Beltran et al. 2025).

B1: Ankyrin-2, residues 3571 to 3650; numbered along this chain, Q01484 (parent)
chain: ERLAYIADHLGFSWTELARELDFTEEQIHQIRIENPNSLQDQSHALLKYWLERDGKHATDTNLVECLTKINRMDIVHLME

In this series the parent is B1. Kind of series: abundance fitness (aPCA) (normalised: wild type 0, dead -1); higher = more abundant; growth selection in yeast, the domain comes from the species named. As to conditions: Homo sapiens.
Consider ERLAYIADHLGFSWTELARELTFTEEQIHQIRIENPNSLQDQSHALLKYWLERDGKHATDTNLVECLTKINRMDIVHLME [D22T], for which the abundance fitness is -0.048 ± 0.12.
Under ERLAYIADHLGFSWTELARELEFTEEQIHQIRIENPNSLQDQSHALLKYWLERDGKHATDTNLVECLTKINRMDIVHLME [D22E] stands -0.217 ± 0.14; under ERLAYIADHLGFSWTELARELNFTEEQIHQIRIENPNSLQDQSHALLKYWLERDGKHATDTNLVECLTKINRMDIVHLME [D22N], -0.111 ± 0.14; under ERLAYIADHLGFSWTELARELQFTEEQIHQIRIENPNSLQDQSHALLKYWLERDGKHATDTNLVECLTKINRMDIVHLME [D22Q], 0.017 ± 0.095.
Regarding ERLAYIADHLGFSWTELARELIFTEEQIHQIRIENPNSLQDQSHALLKYWLERDGKHATDTNLVECLTKINRMDIVHLME [D22I], the abundance fitness was -0.14 ± 0.35.
ERLAYIADHLGFSWTELARELCFTEEQIHQIRIENPNSLQDQSHALLKYWLERDGKHATDTNLVECLTKINRMDIVHLME [D22C]: the abundance fitness is -0.167 ± 0.2.
Next, ERLAYIADHLGFSWTELARELWFTEEQIHQIRIENPNSLQDQSHALLKYWLERDGKHATDTNLVECLTKINRMDIVHLME [D22W]: -0.223 ± 0.067; ERLAYIADHLGFSWTELARELSFTEEQIHQIRIENPNSLQDQSHALLKYWLERDGKHATDTNLVECLTKINRMDIVHLME [D22S]: 0.012 ± 0.061.
As for ERLAYIADHLGFSWTELARELAFTEEQIHQIRIENPNSLQDQSHALLKYWLERDGKHATDTNLVECLTKINRMDIVHLME [D22A], the abundance fitness is -0.05 ± 0.066.
As to ERLAYIADHLGFSWTELARELYFTEEQIHQIRIENPNSLQDQSHALLKYWLERDGKHATDTNLVECLTKINRMDIVHLME [D22Y], the abundance fitness was -0.158 ± 0.16.
Under ERLAYIADHLGFSWTELARELHFTEEQIHQIRIENPNSLQDQSHALLKYWLERDGKHATDTNLVECLTKINRMDIVHLME [D22H] stands -0.017 ± 0.25.
Under ERLAYIADHLGFSWTELARELMFTEEQIHQIRIENPNSLQDQSHALLKYWLERDGKHATDTNLVECLTKINRMDIVHLME [D22M] stands -0.075 ± 0.05; under ERLAYIADHLGFSWTELARELFFTEEQIHQIRIENPNSLQDQSHALLKYWLERDGKHATDTNLVECLTKINRMDIVHLME [D22F], -0.039 ± 0.097.
Under ERLAYIADHLGFSWTELARELKFTEEQIHQIRIENPNSLQDQSHALLKYWLERDGKHATDTNLVECLTKINRMDIVHLME [D22K] stands -0.051 ± 0.12; under ERLAYIADHLGFSWTELARELGFTEEQIHQIRIENPNSLQDQSHALLKYWLERDGKHATDTNLVECLTKINRMDIVHLME [D22G], -0.075 ± 0.06.
Regarding ERLAYIADHLGFSWTELARELVFTEEQIHQIRIENPNSLQDQSHALLKYWLERDGKHATDTNLVECLTKINRMDIVHLME [D22V], the abundance fitness was -0.206 ± 0.066.
Next, ERLAYIADHLGFSWTELAHELDFTEEQIHQIRIENPNSLQDQSHALLKYWLERDGKHATDTNLVECLTKINRMDIVHLME [R19H]: 0.028 ± 0.13.
ERLAYIADHLGFSWTELAPELDFTEEQIHQIRIENPNSLQDQSHALLKYWLERDGKHATDTNLVECLTKINRMDIVHLME [R19P]: the abundance fitness is -0.208 ± 0.059.
Regarding ERLAYIADHLGFSWTELAIELDFTEEQIHQIRIENPNSLQDQSHALLKYWLERDGKHATDTNLVECLTKINRMDIVHLME [R19I], the abundance fitness came out at 0.049 ± 0.2.
With ERLAYIADHLGFSWTELAWELDFTEEQIHQIRIENPNSLQDQSHALLKYWLERDGKHATDTNLVECLTKINRMDIVHLME [R19W], the abundance fitness is 0.001 ± 0.075.
As for ERLAYIADHLGFSWTELAMELDFTEEQIHQIRIENPNSLQDQSHALLKYWLERDGKHATDTNLVECLTKINRMDIVHLME [R19M], the abundance fitness turned out to be 0.083 ± 0.19.
Regarding ERLAYIADHLGFSWTELAQELDFTEEQIHQIRIENPNSLQDQSHALLKYWLERDGKHATDTNLVECLTKINRMDIVHLME [R19Q], the abundance fitness worked out at 0.046 ± 0.075.
ERLAYIADHLGFSWTELALELDFTEEQIHQIRIENPNSLQDQSHALLKYWLERDGKHATDTNLVECLTKINRMDIVHLME [R19L]: the abundance fitness was -0.025 ± 0.057.
Take ERLAYIADHLGFSWTELASELDFTEEQIHQIRIENPNSLQDQSHALLKYWLERDGKHATDTNLVECLTKINRMDIVHLME [R19S]: the abundance fitness is -0.101 ± 0.055.
Turning to ERLAYIADHLGFSWTELAGELDFTEEQIHQIRIENPNSLQDQSHALLKYWLERDGKHATDTNLVECLTKINRMDIVHLME [R19G], the abundance fitness is -0.004 ± 0.057.
Under ERLAYIADHLGFSWTELANELDFTEEQIHQIRIENPNSLQDQSHALLKYWLERDGKHATDTNLVECLTKINRMDIVHLME [R19N] stands 0.015 ± 0.16; under ERLAYIADHLGFSWTELAKELDFTEEQIHQIRIENPNSLQDQSHALLKYWLERDGKHATDTNLVECLTKINRMDIVHLME [R19K], 0.077 ± 0.11.
In the case of ERLAYIADHLGFSWTELAYELDFTEEQIHQIRIENPNSLQDQSHALLKYWLERDGKHATDTNLVECLTKINRMDIVHLME [R19Y], the abundance fitness is -0.396 ± 0.44.
On to ERLAYIADHLGFSWTELARELDETEEQIHQIRIENPNSLQDQSHALLKYWLERDGKHATDTNLVECLTKINRMDIVHLME [F23E], for which the abundance fitness was -1.17 ± 0.31.
Regarding ERLAYIADHLGFSWTELARELDKTEEQIHQIRIENPNSLQDQSHALLKYWLERDGKHATDTNLVECLTKINRMDIVHLME [F23K], the abundance fitness was -0.983 ± 0.41.
Next, ERLAYIADHLGFSWTELARELDCTEEQIHQIRIENPNSLQDQSHALLKYWLERDGKHATDTNLVECLTKINRMDIVHLME [F23C]: -0.184 ± 0.11; ERLAYIADHLGFSWTELARELDGTEEQIHQIRIENPNSLQDQSHALLKYWLERDGKHATDTNLVECLTKINRMDIVHLME [F23G]: -1.17 ± 0.19; ERLAYIADHLGFSWTELARELDPTEEQIHQIRIENPNSLQDQSHALLKYWLERDGKHATDTNLVECLTKINRMDIVHLME [F23P]: -1.07 ± 0.22.
On to ERLAYIADHLGFSWTELARELDQTEEQIHQIRIENPNSLQDQSHALLKYWLERDGKHATDTNLVECLTKINRMDIVHLME [F23Q], for which the abundance fitness is -0.912 ± 0.18.
